From patent publication US20170253656A1 (SUTRO BIOPHARMA, published 2017) come the findings set out here.

The labels stand for the following.
T1: hu-CD74 antigen (R&D SYSTEMS catalog #3590-CD-050) (human, UniProt P04233-2 73-232, limits assumed)
T1 construct: Bought antigen; also called rhCD74; human CD74
T1 sequence (looked up): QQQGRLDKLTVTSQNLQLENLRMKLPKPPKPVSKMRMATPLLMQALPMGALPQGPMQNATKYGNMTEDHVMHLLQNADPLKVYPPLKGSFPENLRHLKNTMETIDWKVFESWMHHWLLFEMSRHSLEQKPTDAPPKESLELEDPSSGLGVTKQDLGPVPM

B1: 1193-E06b (scFv)
scFv: EVQLLESGGGLVQPGGSLRLSCAASGFTFNNTDMSWVRQAPGKGLEWVGIINGSGGATNYADSVKGRFTISRDNSKNTLYLQMNSLRAEDTAVYYCAKFENEWEVSMDYWGQGTLVTVSSGGGGSGGGGSGGGGSEIVLTQSPGTLSLSPGERATLSCRASQSVSSSYLAWYQQKPGQAPRLLIYGASSRATGIPDRFSGSGSGTDFTLTISRLEPEDFAVYYCQQHYTTPPTFGQGTKVEIK
notes: Called scFv clone
B2: 1193-B06 (scFv)
scFv: EVQLLESGGGLVQPGGSLRLSCAASGFTFTGNWMSWVRQAPGKGLEWVGIIYGTSGATYYADSVKGRFTISRDNSKNTLYLQMNSLRAEDTAVYYCAKPSMSGSRGFDYWGQGTLVTVSSGGGGSGGGGSGGGGSEIVLTQSPGTLSLSPGERATLSCRAGQSVSSSYLAWYQQKPGQAPRLLIYGASSRATGIPDRFSGSGSGTDFTLTISRLEPEDFAVYYCQQHYTTPPTFGQGTKVEIK
notes: Called scFv clone; VH3-23 / Vk3-A27; Biacore capture was on anti-human Fc, so an Fc may have been attached
B3: 1193-C08 (scFv)
scFv: EVQLLESGGGLVQPGGSLRLSCAASGFTFNNNWMSWVRQAPGKGLEWVGIINGDDGYTYYADRVKGRFTIIRDNSKNTLYLQMNSLRAEDTAVYYCAKVALGRPRRFDYWGQGTLVTVSSGGGGSGGGGSGGGGSEIVLTQSPGTLSLTPGERATLSCRASQSVSSNYLAWYQQKPGQAPRLLIYGASSRATGIPDRFSGSGSGTDFTLTISRLEPEDFAMYYCQQHYTTPPTFGQGTKVEIK
notes: Called scFv clone
B4: 1193-H04b (scFv)
scFv: EVQLLESGGGLVQPGGSLRLSCAASGFTFTSSWMSWVRQAPGKGLEWVGIINGYNGITYYADSVKGRFTISRDNSKNTLYLQMNSLRAEDTAVYYCAKPSAPGARRFDYWGQGTLVTVSSGGGGSGGGGSGGGGSEIVLTQSPGTLSLSPGEATLSCRASQSVSSSYLAWYQQRPGQAPRLLIYGASSRATGIPDRFSGSGSGTDFTLTISRLEPEDFAVYYCQQHYTTPPTFGQGTKVEIK
notes: Called scFv clone
B5: 1337-A08 light chain paired with VH 1251-A06 (SEQ ID NO: 236) (Fab, V domains shown)
VH: QVQLVESGGGVVQPGRSLRLSCAASGFDFSSYGMHWVRQAPDKGLEWVAVIWDDGSDRYYADSVKGRFTISRDNSKNTLYLQMNSLRAEDTAVYYCARGGTRVLGAIHGTDVWGQGTTVTVSS
VL: DIQMTQSPSSLSASVGDRVTITCRASQDIGSWVAWYQQKPEKAPKSLIYASDSLQSGVPSRFSGSGSGTDFTLTISSLQPEDFATYYCQQYNSYPLTFGGGTKVEIK
notes: 'in Fab format'
B6: 1337-A10 light chain paired with VH 1251-A06 (SEQ ID NO: 236) (Fab, V domains shown)
VH: QVQLVESGGGVVQPGRSLRLSCAASGFDFSSYGMHWVRQAPDKGLEWVAVIWDDGSDRYYADSVKGRFTISRDNSKNTLYLQMNSLRAEDTAVYYCARGGTRVLGAIHGTDVWGQGTTVTVSS
VL: DIQMTQSPSSLSASVGDRVTITCRASQGISSWVAWYQQKPEKAPKSLIYGSSRLQSGVPSRFSGSGSGTDFTLTISSLQPEDFATYYCQQYNTYPLTFGGGTKVEIK
notes: 'in Fab format'
B7: 1337-A09 light chain paired with VH 1251-A06 (SEQ ID NO: 236) (Fab, V domains shown)
VH: QVQLVESGGGVVQPGRSLRLSCAASGFDFSSYGMHWVRQAPDKGLEWVAVIWDDGSDRYYADSVKGRFTISRDNSKNTLYLQMNSLRAEDTAVYYCARGGTRVLGAIHGTDVWGQGTTVTVSS
VL: DIQMTQSPSSLSASVGDRVTITCRASQGIGSWLAWYQQKPEKAPKSLIYAADRLQSGVPSRFSGSGSGTDFTLTISSLQPEDFATYYCQQYHTYPLTFGGGTKVEIK
notes: 'in Fab format'
B8: 1198-B10 paired with trastuzumab LC (Fab, V domains shown)
VH: EVQLVESGGGLVQPGGSLRLSCAASGFNISGSWIHWVRQAPGKGLEWVGYIYPDDGDTYYADSVKGRFTISADTSKNTAYLQMNSLRAEDTAVYYCAREGSHNLDKMDYWGQGTLVTVSS
VL: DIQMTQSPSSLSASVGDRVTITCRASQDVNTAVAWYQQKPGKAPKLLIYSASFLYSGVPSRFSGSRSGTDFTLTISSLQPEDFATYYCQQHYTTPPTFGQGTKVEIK
notes: Called Fab clone
B9: 1198-A01 paired with trastuzumab LC (Fab, V domains shown)
VH: EVQLVESGGGLVQPGGSLRLSCAASGFTFSDYDMSWVRQAPGKGLEWVGFIAQDGSYKYYVDSVKGRFTISRDNAKNSLYLQMNSLRAEDTAVYYCARSKLFRAGQFDYWGQGTLVTVSS
VL: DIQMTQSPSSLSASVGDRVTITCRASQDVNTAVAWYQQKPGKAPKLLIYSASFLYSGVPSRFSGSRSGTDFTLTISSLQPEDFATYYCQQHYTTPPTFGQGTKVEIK
notes: Called Fab clone
B10: 1198-D03 paired with trastuzumab LC (Fab, V domains shown)
VH: EVQLVESGGGLVQPGGSLRLSCAASGFNINNYDIHWVRQAPGKGLEWVANIDPYNGATYYADSVKGRFTISADTSKNTAYLQMNSLRAEDTAVYYCARVLWGFWAPFDYWGQGTLVTVSS
VL: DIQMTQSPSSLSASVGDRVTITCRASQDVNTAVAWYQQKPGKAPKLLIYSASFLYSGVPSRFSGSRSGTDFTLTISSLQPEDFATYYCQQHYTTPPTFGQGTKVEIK
notes: Called Fab clone
B11: 1198-D04 paired with trastuzumab LC (Fab, V domains shown)
VH: EVQLVESGGGLVQPGGSLRLSCAASGFNINNYDIHWVRQAPGKGLEWVANIDPYNGTTYYADSVKGRFTISADTSKNTAYLQMNSLRAEDTAVYYCARVPWGFWAPFDYWGQGTLVTVSS
VL: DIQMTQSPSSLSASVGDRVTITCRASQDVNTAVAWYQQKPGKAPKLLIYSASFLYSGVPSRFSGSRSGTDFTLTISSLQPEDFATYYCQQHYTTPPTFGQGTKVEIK
notes: Called Fab clone

One may read the Kd as the free concentration of one partner at which half of the binding sites on the other are occupied at equilibrium, for simple one-to-one binding. Read a high Kd as lower affinity. By koff is commonly meant the first-order rate constant of dissociation. A low value points to a long-lived complex. Usually kon stands for the rate constant with which the complex forms.

The target of the first assay is T1, hu-CD74 antigen (R&D SYSTEMS catalog …). Put plainly: SPR (Biacore T200), captured on anti-human Fc, rhCD74 analyte.
Take B1: binding was characterised by a dissociation constant (Kd) of 0.668 nM, the koff was determined as 0.000651 s⁻¹ and the kon was determined as 975000 M⁻¹ s⁻¹.

Molecule B2 came in with a Kd of 29 nM, a koff of 0.0274 s⁻¹ and a kon of 946000 M⁻¹ s⁻¹.

Take B3: the Kd worked out at 78.2 nM, the koff was 0.00908 s⁻¹ and the kon stood at 116000 M⁻¹ s⁻¹.

The molecule B4 returned a Kd of 63.8 nM, a koff of 0.00824 s⁻¹ and a kon of 129000 M⁻¹ s⁻¹.

The target is the same in another assay. Described as above. This is another data set of the same source.
B5 returned a Kd of 0.178 nM, a koff of 0.000134 s⁻¹ and a kon of 749000 M⁻¹ s⁻¹.

The molecule B6 gave a dissociation constant Kd of 0.172 nM, a koff of 0.000161 s⁻¹ and a kon of 935000 M⁻¹ s⁻¹.

B7 registered a Kd of 0.135 nM, a koff of 0.000134 s⁻¹ and a kon of 994000 M⁻¹ s⁻¹.

For a further assay the target is unchanged. The assay is described as above. This is another data set of the same source.
B8 came in with a Kd of 11.9 nM, a koff of 0.00286 s⁻¹ and an on-rate (kon) of 241000 M⁻¹ s⁻¹.

Take B9: the affinity, expressed as Kd, was 6.6 nM; the off-rate (koff) was 0.00119 s⁻¹; the kon came out at 179000 M⁻¹ s⁻¹.

Molecule B10 yielded a Kd of 3.25 nM, a koff of 0.00636 s⁻¹ and a kon of 1.95e+06 M⁻¹ s⁻¹.

The molecule B11 returned a Kd of 6.58 nM, a koff of 0.00177 s⁻¹ and a kon of 268000 M⁻¹ s⁻¹.
